# In publication PMC7909569, “Unique Cellular and Biochemical Features of Human Mitochondrial Peroxiredoxin 3 Establish the Molecular Basis for Its Specific Reaction with Thiostrepton” (Antioxidants, 2021):
# Positions count from the first letter of the chain named. Names and notes keep the numbering of the source.
# B1: Untagged wild-type PRX3 (residues 62–256) (enzyme, human, UniProt P30048 62-256, looked up)
# chain: APAVTQHAPYFKGTAVVNGEFKDLSLDDFKGKYLVLFFYPLDFTFVCPTEIVAFSDKANEFHDVNCEVVAVSVDSHFSHLAWINTPRKNGGLGHMNIALLSDLTKQISRDYGVLLEGSGLALRGLFIIDPNGVIKHLSVNDLPVGRSVEETLRLVKAFQYVETHGEVCPANWTPDSPTIKPSPAASKEYFQKVNQ
# notes: peroxiredoxin 3 (PRX3), human, mitochondrial, residues 62–256, wild type, untagged; Stored oxidised to the disulfide (1.5 equivalents H2O2); tested reduced, partially oxidised and oxidised; also called peroxiredoxin 3; mitochondrial peroxiredoxin 3; not shown: Intein, N-terminal, cleaved
# B2: PRX3-S139E/A142E (enzyme, human, UniProt P30048 62-256, looked up)
# chain: B1 chain with S78E, A81E
# notes: peroxiredoxin 3 (PRX3), human, with S139E and A142E in the dimer-dimer interface; The wild-type construct is residues 62–256; The methods call the N-terminal His-tag non-cleavable; also called engineered dimer of PRX3; PRX3 EE
# B3: Wild-type human PRX1 (enzyme, UniProt Q06830 1-199, looked up)
# chain: MSSGNAKIGHPAPNFKATAVMPDGQFKDISLSDYKGKYVVFFFYPLDFTFVCPTEIIAFSDRAEEFKKLNCQVIGASVDSHFCHLAWVNTPKKQGGLGPMNIPLVSDPKRTIAQDYGVLKADEGISFRGLFIIDDKGILRQITVNDLPVGRSVDETLRLVQAFQFTDKHGEVCPAGWKPGSDTIKPDVQKSKEYFSKQK
# notes: peroxiredoxin 1 (PRX1), human, wild type, untagged, no extra residues; Tested reduced (DTT) and oxidised to the disulfide (H2O2); also called peroxiredoxin 1; WT PRX1
# B4: PRX1 C83E (enzyme, human, UniProt Q06830 1-199, looked up)
# chain: B3 chain with C83E
# notes: peroxiredoxin 1 (PRX1), human, with C83E in the dimer-dimer interface, untagged; also called engineered dimer of PRX1; dimeric version of PRX1
# B5: PRX2-T82E (enzyme, human, UniProt P32119 1-198, looked up)
# chain: MASGNARIGKPAPDFKATAVVDGAFKEVKLSDYKGKYVVLFFYPLDFTFVCPTEIIAFSNRAEDFRKLGCEVLGVSVDSQFEHLAWINTPRKEGGLGPLNIPLLADVTRRLSEDYGVLKTDEGIAYRGLFIIDGKGVLRQITVNDLPVGRSVDEALRLVQAFQYTDEHGEVCPAGWKPGSDTIKPNVDDSKEYFSKHN
# notes: peroxiredoxin 2 (PRX2), human, with T82E in the dimer-dimer interface; The methods call the N-terminal His-tag non-cleavable; also called engineered dimer of PRX2; dimeric version of PRX2
# B6: Wild-type human PRX2 (enzyme, UniProt P32119 1-198, looked up)
# chain: B5 chain with E82T
# notes: peroxiredoxin 2 (PRX2), human, wild type, untagged, no extra residues; Tested reduced (DTT) and oxidised to the disulfide (H2O2); also called peroxiredoxin 2; WT PRX2
# What was measured:
# [1] = target: the molecule itself; assay: SEC-MALS; peroxide titration: pre-reduced PRX3 (93 µM), DTT removed, pH 8.0, 0 H2O2 (fully reduced)
# [2] = target: the molecule itself; assay: SEC-MALS; oxidized samples (1.2 equivalents of H2O2), 2 mg/mL PRX, 50 mM HEPES, 100 mM NaCl, pH 7.5; (do)decamer against dimers
# [3] = target: the molecule itself; assay: SEC-MALS; engineered dimers, reduced (10 mM DTT) or oxidized (1.2 equivalents H2O2), 2 mg/mL, all pH values tested (7.0, 7.5, 8.0)
# [4] = target: the molecule itself; assay: SEC-MALS; reduced samples (10 mM DTT), 2 mg/mL (90–93 µM) PRX, 50 mM HEPES, 100 mM NaCl, pH 7.0, 7.5 or 8.0 (PRX3 only pH 7.5 and 8.0); TSK Gel 4000 SW column run without reducing agents; (do)decamer against dimers
# [5] = target: the molecule itself; assay: SEC-MALS; peroxide titration: pre-reduced PRX2 (100 µM), pH 7.4, 100 µM H2O2 (1 equivalence, fully oxidized)
# [6] = target: the molecule itself; assay: SEC-MALS; oxidized samples (1.2 equivalents of H2O2), 2 mg/mL PRX, 50 mM HEPES, 100 mM NaCl, pH 8.0; (do)decamer against dimers
protein,measurement,setting,value
B1,stoichiometry N,[1],12
same,stoichiometry N,[2],2
B2,stoichiometry N,[3],2
B3,stoichiometry N,[4],10
B4,stoichiometry N,[3],2
B5,stoichiometry N,[3],2
B6,stoichiometry N,[5],10
same,stoichiometry N,[6],2
